According to US20250368745A1 (published 2025):

B1: SA301a HC-G55Q (antibody, name in Kabat numbering, V domains shown)
VH: QVQLQESGPGLVKPSQTLSLTCTVSGYSITSDYNSHWIRQPPGKGLEWIGYIHYSQSTNYNPSLKSRVTISRDTSKNQFSLKLSSVTAADTAVYYCARNYGSIYVNYFDYWGQGTLVTVSS
VL: EIVLTQSPATLSLSPGERATLSCSASSSVSYMYWYQQKPGQAPRPLIYRTSNLASGIPARFSGSGSGTDFTLTISSLEPEDFAVYYCQQYHSYPTFGGGTKVEIK
notes: IgG1 kappa
B2: SA301a HC-N58A (antibody, name in Kabat numbering, V domains shown)
VH: QVQLQESGPGLVKPSQTLSLTCTVSGYSITSDYNSHWIRQPPGKGLEWIGYIHYSGSTAYNPSLKSRVTISRDTSKNQFSLKLSSVTAADTAVYYCARNYGSIYVNYFDYWGQGTLVTVSS
VL: EIVLTQSPATLSLSPGERATLSCSASSSVSYMYWYQQKPGQAPRPLIYRTSNLASGIPARFSGSGSGTDFTLTISSLEPEDFAVYYCQQYHSYPTFGGGTKVEIK
notes: IgG1 kappa
B3: SA301a HC-G55T (antibody, name in Kabat numbering, V domains shown)
VH: QVQLQESGPGLVKPSQTLSLTCTVSGYSITSDYNSHWIRQPPGKGLEWIGYIHYSTSTNYNPSLKSRVTISRDTSKNQFSLKLSSVTAADTAVYYCARNYGSIYVNYFDYWGQGTLVTVSS
VL: EIVLTQSPATLSLSPGERATLSCSASSSVSYMYWYQQKPGQAPRPLIYRTSNLASGIPARFSGSGSGTDFTLTISSLEPEDFAVYYCQQYHSYPTFGGGTKVEIK
notes: IgG1 kappa
B4: SA301a HC-N58D (antibody, name in Kabat numbering, V domains shown)
VH: QVQLQESGPGLVKPSQTLSLTCTVSGYSITSDYNSHWIRQPPGKGLEWIGYIHYSGSTDYNPSLKSRVTISRDTSKNQFSLKLSSVTAADTAVYYCARNYGSIYVNYFDYWGQGTLVTVSS
VL: EIVLTQSPATLSLSPGERATLSCSASSSVSYMYWYQQKPGQAPRPLIYRTSNLASGIPARFSGSGSGTDFTLTISSLEPEDFAVYYCQQYHSYPTFGGGTKVEIK
notes: IgG1 kappa
B5: SA301a HC-G55V (antibody, name in Kabat numbering, V domains shown)
VH: QVQLQESGPGLVKPSQTLSLTCTVSGYSITSDYNSHWIRQPPGKGLEWIGYIHYSVSTNYNPSLKSRVTISRDTSKNQFSLKLSSVTAADTAVYYCARNYGSIYVNYFDYWGQGTLVTVSS
VL: EIVLTQSPATLSLSPGERATLSCSASSSVSYMYWYQQKPGQAPRPLIYRTSNLASGIPARFSGSGSGTDFTLTISSLEPEDFAVYYCQQYHSYPTFGGGTKVEIK
notes: IgG1 kappa
B6: SA301a HC-G55S (antibody, name in Kabat numbering, V domains shown)
VH: QVQLQESGPGLVKPSQTLSLTCTVSGYSITSDYNSHWIRQPPGKGLEWIGYIHYSSSTNYNPSLKSRVTISRDTSKNQFSLKLSSVTAADTAVYYCARNYGSIYVNYFDYWGQGTLVTVSS
VL: EIVLTQSPATLSLSPGERATLSCSASSSVSYMYWYQQKPGQAPRPLIYRTSNLASGIPARFSGSGSGTDFTLTISSLEPEDFAVYYCQQYHSYPTFGGGTKVEIK
notes: IgG1 kappa
B7: SA301a HC-G55Y (antibody, name in Kabat numbering, V domains shown)
VH: QVQLQESGPGLVKPSQTLSLTCTVSGYSITSDYNSHWIRQPPGKGLEWIGYIHYSYSTNYNPSLKSRVTISRDTSKNQFSLKLSSVTAADTAVYYCARNYGSIYVNYFDYWGQGTLVTVSS
VL: EIVLTQSPATLSLSPGERATLSCSASSSVSYMYWYQQKPGQAPRPLIYRTSNLASGIPARFSGSGSGTDFTLTISSLEPEDFAVYYCQQYHSYPTFGGGTKVEIK
notes: IgG1 kappa
B8: SA301a HC-N58H (antibody, name in Kabat numbering, V domains shown)
VH: QVQLQESGPGLVKPSQTLSLTCTVSGYSITSDYNSHWIRQPPGKGLEWIGYIHYSGSTHYNPSLKSRVTISRDTSKNQFSLKLSSVTAADTAVYYCARNYGSIYVNYFDYWGQGTLVTVSS
VL: EIVLTQSPATLSLSPGERATLSCSASSSVSYMYWYQQKPGQAPRPLIYRTSNLASGIPARFSGSGSGTDFTLTISSLEPEDFAVYYCQQYHSYPTFGGGTKVEIK
notes: IgG1 kappa
B9: SA301a HC-N58E (antibody, name in Kabat numbering, V domains shown)
VH: QVQLQESGPGLVKPSQTLSLTCTVSGYSITSDYNSHWIRQPPGKGLEWIGYIHYSGSTEYNPSLKSRVTISRDTSKNQFSLKLSSVTAADTAVYYCARNYGSIYVNYFDYWGQGTLVTVSS
VL: EIVLTQSPATLSLSPGERATLSCSASSSVSYMYWYQQKPGQAPRPLIYRTSNLASGIPARFSGSGSGTDFTLTISSLEPEDFAVYYCQQYHSYPTFGGGTKVEIK
notes: IgG1 kappa
B10: SA301a HC-N58G (antibody, name in Kabat numbering, V domains shown)
VH: QVQLQESGPGLVKPSQTLSLTCTVSGYSITSDYNSHWIRQPPGKGLEWIGYIHYSGSTGYNPSLKSRVTISRDTSKNQFSLKLSSVTAADTAVYYCARNYGSIYVNYFDYWGQGTLVTVSS
VL: EIVLTQSPATLSLSPGERATLSCSASSSVSYMYWYQQKPGQAPRPLIYRTSNLASGIPARFSGSGSGTDFTLTISSLEPEDFAVYYCQQYHSYPTFGGGTKVEIK
notes: IgG1 kappa
B11: SA301a HC-G55R (antibody, name in Kabat numbering, V domains shown)
VH: QVQLQESGPGLVKPSQTLSLTCTVSGYSITSDYNSHWIRQPPGKGLEWIGYIHYSRSTNYNPSLKSRVTISRDTSKNQFSLKLSSVTAADTAVYYCARNYGSIYVNYFDYWGQGTLVTVSS
VL: EIVLTQSPATLSLSPGERATLSCSASSSVSYMYWYQQKPGQAPRPLIYRTSNLASGIPARFSGSGSGTDFTLTISSLEPEDFAVYYCQQYHSYPTFGGGTKVEIK
notes: IgG1 kappa
B12: SA301a HC-N58P (antibody, name in Kabat numbering, V domains shown)
VH: QVQLQESGPGLVKPSQTLSLTCTVSGYSITSDYNSHWIRQPPGKGLEWIGYIHYSGSTPYNPSLKSRVTISRDTSKNQFSLKLSSVTAADTAVYYCARNYGSIYVNYFDYWGQGTLVTVSS
VL: EIVLTQSPATLSLSPGERATLSCSASSSVSYMYWYQQKPGQAPRPLIYRTSNLASGIPARFSGSGSGTDFTLTISSLEPEDFAVYYCQQYHSYPTFGGGTKVEIK
notes: IgG1 kappa
B13: SA301a HC-N58K (antibody, name in Kabat numbering, V domains shown)
VH: QVQLQESGPGLVKPSQTLSLTCTVSGYSITSDYNSHWIRQPPGKGLEWIGYIHYSGSTKYNPSLKSRVTISRDTSKNQFSLKLSSVTAADTAVYYCARNYGSIYVNYFDYWGQGTLVTVSS
VL: EIVLTQSPATLSLSPGERATLSCSASSSVSYMYWYQQKPGQAPRPLIYRTSNLASGIPARFSGSGSGTDFTLTISSLEPEDFAVYYCQQYHSYPTFGGGTKVEIK
notes: IgG1 kappa
B14: SA301a HC-N58Q (antibody, name in Kabat numbering, V domains shown)
VH: QVQLQESGPGLVKPSQTLSLTCTVSGYSITSDYNSHWIRQPPGKGLEWIGYIHYSGSTQYNPSLKSRVTISRDTSKNQFSLKLSSVTAADTAVYYCARNYGSIYVNYFDYWGQGTLVTVSS
VL: EIVLTQSPATLSLSPGERATLSCSASSSVSYMYWYQQKPGQAPRPLIYRTSNLASGIPARFSGSGSGTDFTLTISSLEPEDFAVYYCQQYHSYPTFGGGTKVEIK
notes: IgG1 kappa
B15: SA301a HC-N58I (antibody, name in Kabat numbering, V domains shown)
VH: QVQLQESGPGLVKPSQTLSLTCTVSGYSITSDYNSHWIRQPPGKGLEWIGYIHYSGSTIYNPSLKSRVTISRDTSKNQFSLKLSSVTAADTAVYYCARNYGSIYVNYFDYWGQGTLVTVSS
VL: EIVLTQSPATLSLSPGERATLSCSASSSVSYMYWYQQKPGQAPRPLIYRTSNLASGIPARFSGSGSGTDFTLTISSLEPEDFAVYYCQQYHSYPTFGGGTKVEIK
notes: IgG1 kappa
B16: SA301a HC-N58M (antibody, name in Kabat numbering, V domains shown)
VH: QVQLQESGPGLVKPSQTLSLTCTVSGYSITSDYNSHWIRQPPGKGLEWIGYIHYSGSTMYNPSLKSRVTISRDTSKNQFSLKLSSVTAADTAVYYCARNYGSIYVNYFDYWGQGTLVTVSS
VL: EIVLTQSPATLSLSPGERATLSCSASSSVSYMYWYQQKPGQAPRPLIYRTSNLASGIPARFSGSGSGTDFTLTISSLEPEDFAVYYCQQYHSYPTFGGGTKVEIK
notes: IgG1 kappa

The binders below were run against T1, human IL-18BP (human, UniProt O95998 31-194) (assay: BLI, apparent KD).
T1 construct: UniProt printed as 095998; also called hIL-18BP
T1 sequence: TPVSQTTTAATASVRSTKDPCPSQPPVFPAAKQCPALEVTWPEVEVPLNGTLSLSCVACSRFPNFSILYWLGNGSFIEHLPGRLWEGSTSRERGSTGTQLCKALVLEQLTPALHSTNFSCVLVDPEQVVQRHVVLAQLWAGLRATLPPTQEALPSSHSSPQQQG

In order of rising Kd:
1. B16  0.23 nM
2. B15  0.27 nM
3. B8  0.31 nM
4. B13  0.34 nM
5. B12  0.41 nM
6. B5  0.44 nM
7. B6  0.51 nM
8. B14  0.62 nM
9. B2  0.64 nM
10. B11  0.75 nM
11. B1  0.79 nM
12. B3  1 nM
13. B7  2.33 nM
14. B9  2.5 nM
15. B10  4.39 nM
16. B4  4.51 nM
